From patent US12662513B2, “Peptidic modulators of quorum sensing in Staphylococcus epidermidis” (priority 2016, dated 2026)
Bridge positions count the residues as written; N and C are the ends. Square brackets hold non-standard residues; d marks the D form. Ends that are not written are not given here. Peptide text beside a SMILES is read from it.

Target: AgrC-I receptor (Staphylococcus epidermidis, UniProt Q5HMY3)
Experiment: cell-based
Format: cell-based, S. epidermidis
Conditions: for Mode/strength of activity toward AgrC-I (Group I), in words: dose response; for EC50 in AgrC-I: activation dose response in the presence of 50 nM S. epidermidis AIP-II; for IC50 in AgrC-I: antagonism dose response, peptide alone, Group-I GFP reporter strain, 24 h
Method: The initial set of 14 analogs (listed in Table 1) was synthesized using solid-phase peptide chemistry and purified to homogeneity using previously established HPLC methods (59). Each analog was tested for its ability to modulate the activity of the AgrC-I receptor using a wild-type S. epidermidis Group-I fluorescence reporter strain. This strain contained a reporter plasmid encoding a gfp gene fused to the P3 promoter found upstream of RNAIII (36).
Biological reagents, strains, and general methods. All standard reagents were purchased from commercial sources and used according to enclosed instructions. The S. epidermidis fluorescence reporter strains AH3408 (Group-I), AH3567 (Group-II), and AH3409 (Group-III) were cultured in Tryptic Soy Broth (TSB, from Sigma) augmented with 10 μg/mL of erythromycin (36). The S. epidermidis wild-type strain RP62A (Group-I) was cultured in TSB (from Sigma or EMD Millipore). The S. aureus fluorescence reporter strains AH1677 (Group-I), AH430 (Group-II), AH1747 (Group-III), and AH1872 (Group-IV) were cultured in Brain Heart Infusion (BHI, from Teknova) augmented with 10 μg/mL of chloramphenicol (65). All cultures were grown at 37° C. with shaking (200 rpm) unless noted otherwise. Absorbance and fluorescence measurements were obtained using a Biotek Synergy 2 microplate reader operating Gen5 data analysis software. IC50 values and EC50 values were determined from sigmoidal curve fits using GraphPad Prism software (v. 6.0).
Fluorescence reporter assay protocol. […] Each peptide solution was tested in triplicate. […] Plates were then incubated at 37° C. for 24 h. Fluorescence (EX 500 nm/EM 540 nm) and OD600 of each well was measured using a plate reader, and the fluorescence values were normalized to the DMSO control.
The remaining steps of the fluorescence assay were the same as above.

AgrC-I receptor, sequence (Q5HMY3 entry or part of it): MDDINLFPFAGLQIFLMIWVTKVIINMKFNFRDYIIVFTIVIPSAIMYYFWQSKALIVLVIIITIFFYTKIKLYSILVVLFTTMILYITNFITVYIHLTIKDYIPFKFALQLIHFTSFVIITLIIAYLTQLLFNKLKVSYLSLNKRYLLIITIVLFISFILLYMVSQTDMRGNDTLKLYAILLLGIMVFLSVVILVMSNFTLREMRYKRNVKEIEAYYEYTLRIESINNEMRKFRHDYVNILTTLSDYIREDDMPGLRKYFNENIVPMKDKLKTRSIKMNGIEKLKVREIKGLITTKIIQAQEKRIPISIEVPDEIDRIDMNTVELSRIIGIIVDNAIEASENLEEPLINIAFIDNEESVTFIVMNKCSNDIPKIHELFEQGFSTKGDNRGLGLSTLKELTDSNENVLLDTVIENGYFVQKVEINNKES

Molecule	Mode/strength of activity toward AgrC-I (Group I), in words	EC50 in AgrC-I	IC50 in AgrC-I	Activity against Group-I, in words (single concentration 10 μM)
CC(C)[C@H](NC(=O)[C@H](CO)NC(=O)[C@@H](N)CC(=O)O)C(=O)N[C@H]1CSC(=O)[C@@H](Cc2ccccc2)NC(=O)[C@H](Cc2ccc(O)cc2)NC(=O)[C@H](CO)NC(=O)[C@H](C)NC1=O [AIP-I D-F8, D-S-V-(C-A-S-Y-DF)] (H-DSVCASY[dF]; thioester 4-C)	maintained agonistic activity	–	–	–
CC(C)C[C@@H]1NC(=O)[C@H](Cc2ccc(O)cc2)NC(=O)[C@H](CC(N)=O)NC(=O)[C@H](CO)NC(=O)[C@@H](NC(=O)[C@@H]2CCCN2C(=O)[C@@H](N)CC(N)=O)CSC1=O [AIP-II 7aa, N-P-(C-S-N-Y-L)] (H-NPCSNYL; thioester 3-C)	dramatic reduction in inhibitory activity	–	–	–
CC(C)C[C@@H]1NC(=O)[C@H](Cc2ccc(O)cc2)NC(=O)[C@H](CC(N)=O)NC(=O)[C@H](CO)NC(=O)[C@@H](NC(=O)[C@@H]2CCCN2C(=O)[C@H](CC(N)=O)NC(=O)[C@H](Cc2ccc(O)cc2)NC(=O)[C@H](CCCCN)NC(=O)[C@H](CO)NC(=O)[C@H](C)NC(=O)[C@@H](N)CC(N)=O)CSC1=O [AIP-II, N-A-S-K-Y-N-P-(C-S-N-Y-L), reference compound] (H-NASKYNPCSNYL; thioester 8-C)	inhibit	–	–	–
CC(C)C[C@@H]1NC(=O)[C@H](Cc2ccc(O)cc2)NC(=O)[C@H](CO)NC(=O)[C@H](C)NC(=O)[C@@H](NC(=O)[C@@H]2CCCN2C(=O)[C@H](CC(N)=O)NC(=O)[C@H](Cc2ccc(O)cc2)NC(=O)[C@H](CCCCN)NC(=O)[C@H](C)NC(=O)[C@H](C)NC(=O)[C@@H](N)CC(N)=O)CSC1=O [AIP-III, N-A-A-K-Y-N-P-(C-A-S-Y-L), reference compound] (H-NAAKYNPCASYL; thioester 8-C)	inhibit	–	–	–
CC(C)C[C@@H]1NC(=O)[C@H](CO)NC(=O)[C@H](CO)NC(=O)[C@@H](NC(=O)[C@H](C)NC(=O)[C@H](CC(N)=O)NC(=O)[C@@H](NC(=O)CN)C(C)C)CSC(=O)[C@H](Cc2ccccc2)NC1=O [S. aureus AIP-II, G-V-N-A-(C-S-S-L-F), reference compound] (H-GVNACSSLF; thioester 5-C)	relatively strong AgrC-I antagonist	–	–	–
CC(=O)N[C@H]1CSC(=O)[C@H](Cc2ccccc2)NC(=O)[C@H](Cc2ccc(O)cc2)NC(=O)[C@H](CO)NC(=O)[C@H](C)NC1=O [tAIP-I, Ac-(C-A-S-Y-F)] (Ac-CASYF; thioester 1-C)	weak inhibitory activity	–	–	–
D-S-V-(C-A-S-A-F) (DSVCASAF; bridge 4-C; also: thiolactone between Cys4 side chain and C-terminus) [AIP-I Y7A]	–	Inactive^c	Inactive^c	inactive
D-S-V-(C-A-S-DY-F) (DSVCAS[dY]F; bridge 4-C; also: thiolactone between Cys4 side chain and C-terminus) [AIP-I D-Y7]	complete loss of activity	Inactive^c	Inactive^c	–
D-S-V-(C-A-S-Y-A) (DSVCASYA; bridge 4-C; also: thiolactone between Cys4 side chain and C-terminus) [AIP-I F8A]	–	Inactive^c	Inactive^c	–
D-S-V-(C-DA-S-Y-F) (DSVC[dA]SYF; bridge 4-C; also: thiolactone between Cys4 side chain and C-terminus) [AIP-I D-A5]	–	Inactive^c	Inactive^c	–
D-S-V-(DC-A-S-Y-F) (DSV[dC]ASYF; bridge 4-C; also: thiolactone between Cys4 side chain and C-terminus) [AIP-I D-C4]	–	Inactive^c	Inactive^c	–
I-N-(C-D-F-L-L) [S. aureus AIP-III, reference compound]	–	Inactive^c	Inactive^c	–
